The results in this text go back to article PMC11098746 (2024).

Sequences and labels used below:
B1: ADP109 (protein)
chain: MGIQGGSVLFGLLLVLAVFCHSGHSLQCYNCPNPTADCKTAVNCSSDFDACLITKAGLQVYNKCWKFEHCNFNDVTTRLRENELTYYCCKKDLCNFNEQLEN
modifications: bait human Fc-tagged dimer
B2: ADP391 (protein)
chain: SSRHVLLQEEVAELQGQVQRTEVARGRLEKRNSDLLLLVDTHKKQIDQKEADYGRLSSRLQAREGLGKRCEDDKVKLQNNISYQMADIHHLKEQLAELRQEFLRQEDQLQDYRKNNTYLVKRLEYESFQCGQQMKELRAQHEENIKKLADQFLEEQKQETQKIQSNDGKELDINNQVVPKNIPKVAENVADKNEEPSSNHIPHGKEQIKRGGDAGMPGIEENDLAKVDDLPPALRKPPISVSQHESHQAISHLPTGQPLSPNMPPDSHINHNGNPGTSKQNPSSPLQRLIPGSNLDSEPRIQTDILKQATKDRVSDFHKLKQSRFFDENESPVDPQHGSKLADYNGDDGNVGEYEADKQAELAYNEEEDGDGGEEDVQGERGPGLHAITMKPTSKFFG
modifications: bait human Fc-tagged dimer
B3: ADP135 (protein)
chain: MTPPRLFWVWLLVAGTQGVNDGDMRLADGGATNQGRVEIFYRGQWGTVCDNLWDLTDASVVCRALGFENATQALGRAAFGQGSGPIMLDEVQCTGTEASLADCKSLGWLKSNCRHERDAGVVCTNETRSTHTLDLSRELSEALGQIFDSQRGCDLSISVNVQGEDALGFCGHTVILTANLEAQALWKEPGSNVTMSVDAECVPMVRDLLRYFYSRRIDITLSSVKCFHKLASAYGARQLQGYCASLFAILLPQDPSFQMPLDLYAYAVATGDALLEKLCLQFLAWNFEALTQAEAWPSVPTDLLQLLLPRSDLAVPSELALLKAVDTWSWGERASHEEVEGLVEKIRFPMMLPEELFELQFNLSLYWSHEALFQKKTLQALEFHTVPFQLLARYKGLNLTEDTYKPRIYTSPTWSAFVTDSSWSARKSQLVYQSRRGPLVKYSSDYFQAPSDYRYYPYQSFQTPQHPSFLFQDKRVSWSLVYLPTIQSCWNYGFSCSSDELPVLGLTKSGGSDRTIAYENKALMLCEGLFVADVTDFEGWKAAIPSALDTNSSKSTSSFPCPAGHFNGFRTVIRPFYLTNSSGVD
modifications: bait human Fc-tagged dimer
B4: ADP131 (protein)
chain: MVRMVSWSFHKLKTMKHLLLLLLCVFLVKSQGVNDNEEGFFSARGHRPLDKKREEAPSLRPAPPPISGGGYRARPAKAAATQKKVERKAPDAGGCLHADPDLGVLCPTGCQLQEALLQQERPIRNSVDELNNNVEAVSQTSSSSFQYMYLLKDLWQKRQKQVKDNENVVNEYSSELEKHQLYIDETVNSNIPTNLRVLRSILENLRSKIQKLESDVSAQMEYCRTPCTVSCNIPVVSGKECEEIIRKGGETSEMYLIQPDSSVKPYRVYCDMNTENGGWTVIQNRQDGSVDFGRKWDPYKQGFGNVATNTDGKNYCGLPGEYWLGNDKISQLTRMGPTELLIEMEDWKGDKVKAHYGGFTVQNEANKYQISVNKYRGTAGNALMDGASQLMGENRTMTIHNGMFFSTYDRDNDGWLTSDPRKQCSKEDGGGWWYNRCHAANPNGRYYWGGQYTWDMAKHGTDDGVVWMNWKGSWYSMRKMSMKIRPFFPQQ
modifications: bait human Fc-tagged dimer
B5: ADP153 (protein)
chain: MAGIWTLLPLVLTSVARLSSKSVNAQVTDINSKGLELRKTVTTVETQNLEGLHHDGQFCHKPCPPGERKARDCTVNGDEPDCVPCQEGKEYTDKAHFSSKCRRCRLCDEGHGLEVEINCTRTQNTKCRCKPNFFCNSTVCEHCDPCTKCEHGIIKECTLTSNTKCKEEGS
modifications: bait human Fc-tagged dimer

For this assay, the target named is Circumsporozoite protein (CSP) (Plasmodium falciparum (isolate 3D7), UniProt Q7K740). Kind of assay: AVEXIS screen signal:noise (double-corrected).
Chain of Circumsporozoite protein (CSP) (Q7K740 19-374): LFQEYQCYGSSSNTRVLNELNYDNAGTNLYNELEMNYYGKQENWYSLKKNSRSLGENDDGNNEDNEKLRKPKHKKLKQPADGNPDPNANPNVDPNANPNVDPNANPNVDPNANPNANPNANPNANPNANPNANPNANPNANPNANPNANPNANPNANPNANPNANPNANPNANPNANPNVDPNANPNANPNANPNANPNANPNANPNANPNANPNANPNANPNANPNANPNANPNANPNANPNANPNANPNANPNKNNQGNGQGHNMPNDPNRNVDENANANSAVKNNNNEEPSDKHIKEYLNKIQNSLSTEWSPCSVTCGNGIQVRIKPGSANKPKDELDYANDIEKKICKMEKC
In turn, B1 gave a binding score of 1.68. B2 displayed a binding score of 0.592. For the molecule B3, the binding score was determined as 0.514. The figure for B4 is 0.806; for B5 it is 1.01.
